Reference: IntAct's records for PubMed 29892012

B1: Kinetochore protein NDC80 homolog (Homo sapiens), O14777 (parent)
chain: MKRSSVSSGGAGRLSMQELRSQDVNKQGLYTPQTKEKPTFGKLSINKPTSERKVSLFGKRTSGHGSRNSQLGIFSSSEKIKDPRPLNDKAFIQQCIRQLCEFLTENGYAHNVSMKSLQAPSVKDFLKIFTFLYGFLCPSYELPDTKFEEEVPRIFKDLGYPFALSKSSMYTVGAPHTWPHIVAALVWLIDCIKIHTAMKESSPLFDDGQPWGEETEDGIMHNKLFLDYTIKCYESFMSGADSFDEMNAELQSKLKDLFNVDAFKLESLEAKNRALNEQIARLEQEREKEPNRLESLRKLKASLQGDVQKYQAYMSNLESHSAILDQKLNGLNEEIARVELECETIKQENTRLQNIIDNQKYSVADIERINHERNELQQTINKLTKDLEAEQQKLWNEELKYARGKEAIETQLAEYHKLARKLKLIPKGAENSKGYDFEIKFNPEAGANCLVKYRAQVYVPLKELLNETEEEINKALNKKMGLEDTLEQLNAMITESKRSVRTLKEEVQKLDDLYQQKIKEAEEEDEKCASELESLEKHKHLLESTVNQGLSEAMNELDAVQREYQLVVQTTTEERRKVGNNLQRLLEMVATHVGSVEKHLEEQIAKVDREYEECMSEDLSENIKEIRDKYEKKATLIKSSEE
partner: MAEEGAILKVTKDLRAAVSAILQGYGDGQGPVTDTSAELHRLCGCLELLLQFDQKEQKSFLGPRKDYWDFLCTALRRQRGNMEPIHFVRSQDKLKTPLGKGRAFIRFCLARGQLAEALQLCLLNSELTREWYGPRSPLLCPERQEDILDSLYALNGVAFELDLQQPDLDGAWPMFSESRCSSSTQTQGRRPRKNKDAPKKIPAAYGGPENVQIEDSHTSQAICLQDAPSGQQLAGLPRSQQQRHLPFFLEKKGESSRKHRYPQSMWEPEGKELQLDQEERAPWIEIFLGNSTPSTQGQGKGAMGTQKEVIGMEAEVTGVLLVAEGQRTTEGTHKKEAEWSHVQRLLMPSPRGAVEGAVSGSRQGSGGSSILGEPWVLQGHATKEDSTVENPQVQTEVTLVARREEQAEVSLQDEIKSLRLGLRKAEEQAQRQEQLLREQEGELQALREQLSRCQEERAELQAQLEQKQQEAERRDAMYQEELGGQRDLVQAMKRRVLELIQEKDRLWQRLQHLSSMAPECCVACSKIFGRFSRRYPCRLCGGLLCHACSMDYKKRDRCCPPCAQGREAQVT
B2: Keratin, type I cuticular Ha8 (Homo sapiens), O76015 (parent)
chain: MTSSYSSSSCPLGCTMAPGARNVSVSPIDIGCQPGAEANIAPMCLLANVAHANRVRVGSTPLGRPSLCLPPTCHTACPLPGTCHIPGNIGICGAYGENTLNGHEKETMQFLNDRLANYLEKVRQLEQENAELEATLLERSKCHESTVCPDYQSYFHTIEELQQKILCSKAENARLIVQIDNAKLAADDFRIKLESERSLRQLVEADKCGTQKLLDDATLAKADLEAQQESLKEEQLSLKSNHEQEVKILRSQLGEKLRIELDIEPTIDLNRVLGEMRAQYEAMLETNRQDVEQWFQAQSEGISLQDMSCSEELQCCQSEILELRCTVNALEVERQAQHTLKDCLQNSLCEAEDRFGTELAQMQSLISNVEEQLSEIRADLERQNQEYQVLLDVKTRLENEIATYRNLLESEDCKLPCNPCSTSPSCVTAPCAPRPSCGPCTTCGPTCGASTTGSRF
partner: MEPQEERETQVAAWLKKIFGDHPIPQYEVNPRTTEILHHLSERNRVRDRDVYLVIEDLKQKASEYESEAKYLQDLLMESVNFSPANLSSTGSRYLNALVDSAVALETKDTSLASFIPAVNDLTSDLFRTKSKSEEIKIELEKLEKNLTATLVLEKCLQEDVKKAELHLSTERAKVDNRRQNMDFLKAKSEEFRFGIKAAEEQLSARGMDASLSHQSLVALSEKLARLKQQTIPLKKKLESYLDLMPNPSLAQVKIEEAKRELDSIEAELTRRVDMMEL
B3: Kinetochore protein NDC80 homolog (Homo sapiens), O14777 (parent)
chain: B1 chain
partner: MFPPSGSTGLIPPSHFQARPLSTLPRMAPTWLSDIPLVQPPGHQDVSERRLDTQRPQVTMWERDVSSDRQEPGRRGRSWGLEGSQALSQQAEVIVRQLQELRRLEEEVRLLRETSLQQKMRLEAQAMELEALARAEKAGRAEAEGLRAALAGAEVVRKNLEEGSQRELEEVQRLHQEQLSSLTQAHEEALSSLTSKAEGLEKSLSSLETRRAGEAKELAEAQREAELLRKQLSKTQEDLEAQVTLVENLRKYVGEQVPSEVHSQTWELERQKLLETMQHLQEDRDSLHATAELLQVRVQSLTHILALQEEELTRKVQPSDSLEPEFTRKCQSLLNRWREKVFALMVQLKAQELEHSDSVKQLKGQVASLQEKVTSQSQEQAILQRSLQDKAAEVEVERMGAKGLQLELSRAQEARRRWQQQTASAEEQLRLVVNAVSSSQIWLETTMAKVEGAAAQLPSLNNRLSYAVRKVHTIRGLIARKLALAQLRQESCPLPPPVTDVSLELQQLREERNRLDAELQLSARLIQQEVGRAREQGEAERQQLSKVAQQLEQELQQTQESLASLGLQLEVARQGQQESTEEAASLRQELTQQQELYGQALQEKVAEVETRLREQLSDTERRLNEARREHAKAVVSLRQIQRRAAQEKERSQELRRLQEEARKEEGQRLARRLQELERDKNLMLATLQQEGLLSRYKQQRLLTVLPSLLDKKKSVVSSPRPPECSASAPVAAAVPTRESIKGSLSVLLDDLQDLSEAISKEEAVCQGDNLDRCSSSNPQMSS

Variants of: B1
Conditions: with rufy4_human RUFY4, Q6ZNE9

Variant	effect of a mutation on the interaction
K288E	with no effect

Variants of: B2
Conditions: with haus1_human HAUS1, Q96CS2

Variant	effect of a mutation on the interaction
N270K	with no effect

Variants of: B2
Conditions: with haus1_human HAUS1, Q96CS2
Remark: another data set of the same source

Variant	effect of a mutation on the interaction
D306A	with no effect

Variants of: B3
Conditions: with cchcr_human CCHCR1, Q8TD31

Variant	effect of a mutation on the interaction
K288E	with no effect
